Measurements taken from article doi:10.1101/296376 (bioRxiv, 2018).

Target: Miro1-ABC (aa 1-592), C-terminal 6xHis-tag (human, UniProt Q8IXI2 1-592)
Assay: pull-down

Sequence of Miro1-ABC (aa 1-592), C-terminal 6xHis-tag (Q8IXI2 1-592): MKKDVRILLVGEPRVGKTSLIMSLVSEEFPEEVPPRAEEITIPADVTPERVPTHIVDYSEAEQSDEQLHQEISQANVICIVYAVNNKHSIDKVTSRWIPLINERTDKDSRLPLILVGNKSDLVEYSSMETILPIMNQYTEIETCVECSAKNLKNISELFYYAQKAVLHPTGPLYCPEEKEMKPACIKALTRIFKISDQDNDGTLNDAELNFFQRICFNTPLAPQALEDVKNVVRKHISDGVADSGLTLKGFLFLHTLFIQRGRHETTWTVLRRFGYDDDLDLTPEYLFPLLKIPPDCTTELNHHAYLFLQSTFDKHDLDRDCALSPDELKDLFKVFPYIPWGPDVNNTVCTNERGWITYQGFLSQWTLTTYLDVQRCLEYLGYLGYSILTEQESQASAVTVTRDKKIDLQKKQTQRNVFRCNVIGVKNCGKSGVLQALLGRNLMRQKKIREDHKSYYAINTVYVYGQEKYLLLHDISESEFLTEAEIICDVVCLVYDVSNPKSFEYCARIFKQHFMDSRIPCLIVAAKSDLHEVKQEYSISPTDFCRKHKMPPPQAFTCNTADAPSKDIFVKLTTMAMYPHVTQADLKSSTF

binding result: binds
B1: Myo19 C-tail (aa 898-970)-FLAG (domain or fragment)
chain: not shown
